Target: T1, GST-IRF4 (human, UniProt Q15306 1-451)
T1 sequence (looked up): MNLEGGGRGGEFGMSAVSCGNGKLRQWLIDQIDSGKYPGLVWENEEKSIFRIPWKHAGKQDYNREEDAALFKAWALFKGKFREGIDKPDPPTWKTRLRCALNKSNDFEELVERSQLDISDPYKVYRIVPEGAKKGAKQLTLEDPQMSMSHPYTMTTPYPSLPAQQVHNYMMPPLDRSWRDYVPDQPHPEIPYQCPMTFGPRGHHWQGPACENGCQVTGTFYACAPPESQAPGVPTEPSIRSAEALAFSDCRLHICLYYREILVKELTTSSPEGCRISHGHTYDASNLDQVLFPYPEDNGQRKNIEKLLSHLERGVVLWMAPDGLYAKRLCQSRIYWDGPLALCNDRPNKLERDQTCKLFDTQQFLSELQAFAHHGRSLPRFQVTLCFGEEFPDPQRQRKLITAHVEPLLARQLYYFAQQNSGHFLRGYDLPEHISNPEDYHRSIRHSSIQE
Assay: pull-down

binding result: binds
B1: purified His-Peli1 (enzyme, human, UniProt Q96FA3 1-418, looked up)
chain: MFSPDQENHPSKAPVKYGELIVLGYNGSLPNGDRGRRKSRFALFKRPKANGVKPSTVHIACTPQAAKAISNKDQHSISYTLSRAQTVVVEYTHDSNTDMFQIGRSTESPIDFVVTDTVPGSQSNSDTQSVQSTISRFACRIICERNPPFTARIYAAGFDSSKNIFLGEKAAKWKTSDGQMDGLTTNGVLVMHPRNGFTEDSKPGIWREISVCGNVFSLRETRSAQQRGKMVEIETNQLQDGSLIDLCGATLLWRTAEGLSHTPTVKHLEALRQEINAARPQCPVGFNTLAFPSMKRKDVVDEKQPWVYLNCGHVHGYHNWGNKEERDGKDRECPMCRSVGPYVPLWLGCEAGFYVDAGPPTHAFSPCGHVCSEKTTAYWSQIPLPHGTHTFHAACPFCAHQLAGEQGYIRLIFQGPLD

Reference: article doi:10.1101/334433 (bioRxiv, 2018)
